In patent US20100168031:

How the values were obtained:
[1] = tested on: L(+)-biotinyl-aminohexanoyl-Glu-Glu-Gly-Ala-Pro-Asp-Tyr-Glu-Asn-Leu-Gln-Glu-Leu-Asn (SEQ ID NO:12)
[2] = tested on: L(+)-biotinyl-aminohexanoyl-Glu-Asp-Glu-Asp-Asp-Tyr-His-Asn-Pro-Gly-Gly-OH (SEQ ID NO:14)
[3] = tested on: L(+)-biotinyl-aminohexanoyl-Glu-Ser-Ile-Asp-Asp-Tyr-Val-Asn-Val-Pro-Glu-Gly-OH (SEQ ID NO:13)
[4] = tested on: compounds of SEQ ID NO:12; SEQ ID NO: 13; or SEQ ID NO: 14

recombinant full-length human Syk (p72syk protein tyrosine kinase)
phosphorylation of the peptide by the kinase, time resolved fluorescence resonance energy transfer [1]: are phosphorylated by Syk | phosphorylation of the peptide by the kinase, time resolved fluorescence resonance energy transfer [2]: are phosphorylated by Syk | phosphorylation of the peptide by the kinase, time resolved fluorescence resonance energy transfer [3]: are phosphorylated by Syk | fluorescence units (TR-FRET phosphorylation assay, 370 nM peptide, 10 nM Syk, 20 µM ATP) [4]: 20,000 to 30,000 fluorescence units
